Experimental data as given in US20040171105A1.

Target: GST fusion form of full-length human cIAP1 (human) (UniProt Q13490)
Assay: cell-based or functional assay

Sequence of GST fusion form of full-length human cIAP1 (human) (Q13490 whole entry, the tested form may be a part): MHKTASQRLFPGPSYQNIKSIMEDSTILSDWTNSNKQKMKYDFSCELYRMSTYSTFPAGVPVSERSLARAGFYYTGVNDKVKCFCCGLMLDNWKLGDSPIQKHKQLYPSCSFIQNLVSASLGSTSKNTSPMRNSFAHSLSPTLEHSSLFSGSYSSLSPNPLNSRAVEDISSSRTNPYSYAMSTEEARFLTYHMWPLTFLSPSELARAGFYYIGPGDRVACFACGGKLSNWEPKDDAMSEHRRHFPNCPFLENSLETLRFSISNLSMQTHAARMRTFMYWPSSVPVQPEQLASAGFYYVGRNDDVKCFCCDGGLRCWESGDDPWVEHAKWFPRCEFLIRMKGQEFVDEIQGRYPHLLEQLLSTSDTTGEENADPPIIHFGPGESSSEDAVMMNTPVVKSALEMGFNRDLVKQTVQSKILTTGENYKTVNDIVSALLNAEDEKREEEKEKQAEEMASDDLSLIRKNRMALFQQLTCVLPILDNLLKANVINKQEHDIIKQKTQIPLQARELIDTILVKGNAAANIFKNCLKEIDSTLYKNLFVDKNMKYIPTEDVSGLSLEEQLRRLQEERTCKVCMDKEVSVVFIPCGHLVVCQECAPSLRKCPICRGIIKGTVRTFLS

## Omi SA (protease dead mutant Omi S306→Ala, C-terminal hexa-His tagged) (from UniProt O43464 134-458) (enzyme)
  relief of cIAP1 inhibition of caspase activity in HeLa extracts: 75 nM
